In data set [1] the target is T1, native sigmaA-RNA polymerase holoenzyme (Bacillus subtilis, UniProt P20429;P37870;P37871;P06224 1-314;1-1193;1-1199;1-371). In words: EMSA; 5 mM Mg2+, heparin 80 ng/uL; 40 mM Tris-HCl pH 8.0, 5 mM MgCl2, 160 mM KCl, 1 mM DTT, heparin 80 ng/uL, ~10 nM RNA, plus RNAP storage buffer; 30 min at 37 C; native 7.5% PAGE (10% for Fig 12). As to conditions: protein: native, chain copies: 2;1;1;1, label: 5'-32P. Background: Mobility shift assays separate free from complexed probe on a gel.
T1 sequence (P20429 whole entry, chain 1 of 4): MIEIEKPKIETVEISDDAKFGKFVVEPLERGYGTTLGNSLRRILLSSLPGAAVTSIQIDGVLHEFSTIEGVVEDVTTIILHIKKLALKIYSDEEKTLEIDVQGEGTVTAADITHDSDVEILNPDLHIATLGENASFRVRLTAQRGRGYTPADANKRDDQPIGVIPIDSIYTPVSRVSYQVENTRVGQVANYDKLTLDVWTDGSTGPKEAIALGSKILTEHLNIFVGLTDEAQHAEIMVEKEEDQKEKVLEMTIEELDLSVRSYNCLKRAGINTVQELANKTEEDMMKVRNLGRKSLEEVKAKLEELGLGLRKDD
T1 sequence (P37870 whole entry, chain 2 of 4): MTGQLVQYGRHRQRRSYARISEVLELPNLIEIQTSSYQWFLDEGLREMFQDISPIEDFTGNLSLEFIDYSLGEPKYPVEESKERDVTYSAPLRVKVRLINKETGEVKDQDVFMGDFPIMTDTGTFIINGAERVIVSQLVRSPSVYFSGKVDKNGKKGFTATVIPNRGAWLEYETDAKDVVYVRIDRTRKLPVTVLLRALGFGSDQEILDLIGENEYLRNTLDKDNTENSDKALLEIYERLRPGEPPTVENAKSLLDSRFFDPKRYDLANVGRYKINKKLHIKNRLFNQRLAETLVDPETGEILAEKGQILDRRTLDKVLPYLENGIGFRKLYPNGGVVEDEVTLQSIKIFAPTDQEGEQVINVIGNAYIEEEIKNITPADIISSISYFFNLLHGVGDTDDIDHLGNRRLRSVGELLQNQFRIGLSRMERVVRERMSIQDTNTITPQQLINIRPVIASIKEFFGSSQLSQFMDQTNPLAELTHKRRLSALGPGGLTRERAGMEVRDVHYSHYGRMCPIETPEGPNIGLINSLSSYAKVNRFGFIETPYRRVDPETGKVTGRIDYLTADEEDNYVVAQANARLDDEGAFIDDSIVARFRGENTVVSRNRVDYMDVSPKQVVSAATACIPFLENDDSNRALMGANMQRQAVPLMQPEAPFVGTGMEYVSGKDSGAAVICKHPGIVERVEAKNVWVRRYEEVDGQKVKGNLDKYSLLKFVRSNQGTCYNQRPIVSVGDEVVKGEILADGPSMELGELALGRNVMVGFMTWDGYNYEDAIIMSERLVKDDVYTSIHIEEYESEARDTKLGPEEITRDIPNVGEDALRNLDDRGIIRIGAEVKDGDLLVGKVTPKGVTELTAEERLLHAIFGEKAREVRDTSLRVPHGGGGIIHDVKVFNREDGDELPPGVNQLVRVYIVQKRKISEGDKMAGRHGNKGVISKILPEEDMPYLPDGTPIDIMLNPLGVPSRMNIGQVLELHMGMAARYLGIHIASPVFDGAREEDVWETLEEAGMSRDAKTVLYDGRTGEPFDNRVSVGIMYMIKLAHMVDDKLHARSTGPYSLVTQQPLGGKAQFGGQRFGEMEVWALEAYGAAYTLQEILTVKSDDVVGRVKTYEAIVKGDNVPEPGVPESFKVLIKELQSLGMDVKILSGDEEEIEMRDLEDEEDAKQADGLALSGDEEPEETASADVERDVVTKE
T1 sequence (P37871 whole entry, chain 3 of 4): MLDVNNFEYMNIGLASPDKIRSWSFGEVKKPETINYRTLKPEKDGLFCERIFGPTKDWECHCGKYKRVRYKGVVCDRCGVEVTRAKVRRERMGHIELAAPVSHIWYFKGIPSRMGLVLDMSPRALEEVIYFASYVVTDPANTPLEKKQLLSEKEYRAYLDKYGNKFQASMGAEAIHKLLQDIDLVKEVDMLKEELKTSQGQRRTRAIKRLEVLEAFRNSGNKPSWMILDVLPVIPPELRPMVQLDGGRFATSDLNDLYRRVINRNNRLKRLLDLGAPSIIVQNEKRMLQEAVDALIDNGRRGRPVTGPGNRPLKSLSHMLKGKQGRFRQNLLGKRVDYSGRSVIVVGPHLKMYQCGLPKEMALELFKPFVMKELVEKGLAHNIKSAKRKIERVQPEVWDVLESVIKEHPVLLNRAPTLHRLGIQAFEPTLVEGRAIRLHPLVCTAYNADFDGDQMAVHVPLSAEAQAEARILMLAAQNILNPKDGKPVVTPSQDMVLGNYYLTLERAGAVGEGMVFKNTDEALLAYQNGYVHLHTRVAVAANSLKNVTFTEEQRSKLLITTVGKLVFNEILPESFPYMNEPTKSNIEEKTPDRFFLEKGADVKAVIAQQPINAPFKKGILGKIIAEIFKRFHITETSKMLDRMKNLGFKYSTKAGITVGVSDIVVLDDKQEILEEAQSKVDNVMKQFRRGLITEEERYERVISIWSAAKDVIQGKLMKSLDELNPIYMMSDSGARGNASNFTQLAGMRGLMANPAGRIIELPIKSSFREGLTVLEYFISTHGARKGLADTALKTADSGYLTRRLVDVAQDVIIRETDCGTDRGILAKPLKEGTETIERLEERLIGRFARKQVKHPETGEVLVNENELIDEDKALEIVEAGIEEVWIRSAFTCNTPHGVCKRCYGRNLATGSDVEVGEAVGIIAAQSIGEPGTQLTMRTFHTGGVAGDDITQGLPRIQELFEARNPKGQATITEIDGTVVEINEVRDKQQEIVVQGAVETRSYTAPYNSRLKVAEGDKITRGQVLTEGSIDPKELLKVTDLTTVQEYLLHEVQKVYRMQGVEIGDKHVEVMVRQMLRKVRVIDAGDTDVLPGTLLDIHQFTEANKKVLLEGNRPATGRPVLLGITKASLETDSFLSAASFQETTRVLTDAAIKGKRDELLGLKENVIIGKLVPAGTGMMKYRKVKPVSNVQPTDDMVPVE
T1 sequence (P06224 whole entry, chain 4 of 4): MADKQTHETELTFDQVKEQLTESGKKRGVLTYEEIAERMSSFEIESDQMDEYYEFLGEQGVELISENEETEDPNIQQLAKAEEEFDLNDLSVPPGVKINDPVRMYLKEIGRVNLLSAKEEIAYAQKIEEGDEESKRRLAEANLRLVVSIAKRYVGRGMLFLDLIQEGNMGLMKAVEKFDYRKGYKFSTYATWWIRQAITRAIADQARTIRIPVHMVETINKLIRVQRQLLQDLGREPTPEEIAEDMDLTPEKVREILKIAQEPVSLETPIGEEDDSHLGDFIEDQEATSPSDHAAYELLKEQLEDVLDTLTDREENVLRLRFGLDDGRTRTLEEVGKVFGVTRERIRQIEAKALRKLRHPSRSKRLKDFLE

The target of data set [2] is T1, native sigmaA-RNA polymerase holoenzyme. In words: EMSA; up to 3-fold with other RNAP preparations; 40 mM Tris-HCl pH 8.0, 5 mM MgCl2, 160 mM KCl, 1 mM DTT, heparin 80 ng/uL, ~10 nM RNA, plus RNAP storage buffer; 30 min at 37 C; native 7.5% PAGE (10% for Fig 12). As to conditions: protein: native; chain copies: 2;1;1;1; label: 5'-32P.
For data set [3] the target is unchanged. In words: EMSA; pLNA pre-annealed; 40 mM Tris-HCl pH 8.0, 5 mM MgCl2, 160 mM KCl, 1 mM DTT, heparin 80 ng/uL, ~10 nM RNA, plus RNAP storage buffer; 30 min at 37 C; native 7.5% PAGE (10% for Fig 12). To be noted: protein: native; chain copies: 2;1;1;1; label: 5'-32P on 6S-1 RNA; pLNA annealed to 6S-1 RNA from nt 40 upstream.
Data set [4] has as its target T2, sigmaA-RNA polymerase holoenzyme (native or His-tagged SG7 preparation, not specified for this assay) (Bacillus subtilis, UniProt P20429;P37870;P37871;P06224 1-314;1-1193;1-1199;1-371). In words: EMSA; almost three-fold; K1/2 only in graph; 40 mM Tris-HCl pH 8.0, 5 mM MgCl2, 160 mM KCl, 1 mM DTT, heparin 80 ng/uL, ~10 nM RNA, plus RNAP storage buffer; 30 min at 37 C; native 7.5% PAGE (10% for Fig 12). To be noted: protein: native; chain copies: 2;1;1;1; label: 5'-32P.

For data set [5], the target named is T1, native sigmaA-RNA polymerase holoenzyme. In words: EMSA; pRNA pre-annealed; 40 mM Tris-HCl pH 8.0, 5 mM MgCl2, 160 mM KCl, 1 mM DTT, heparin 80 ng/uL, ~10 nM RNA, plus RNAP storage buffer; 30 min at 37 C; native 7.5% PAGE (10% for Fig 12). To be noted: protein: native; chain copies: 2;1;1;1; label: 5'-32P on 6S-1 RNA; pRNA annealed to 6S-1 RNA from nt 40 upstream.

Data set [6] shares this target. In words: EMSA; Kd printed only in graph; 40 mM Tris-HCl pH 8.0, 5 mM MgCl2, 160 mM KCl, 1 mM DTT, heparin 80 ng/uL, ~10 nM RNA, plus RNAP storage buffer; 30 min at 37 C; native 7.5% PAGE (10% for Fig 12). To be noted: protein: native; chain copies: 2;1;1;1; label: 5'-32P.
In data set [7] the target is T2, sigmaA-RNA polymerase holoenzyme …. In words: EMSA; K1/2 printed only in graph; 40 mM Tris-HCl pH 8.0, 5 mM MgCl2, 160 mM KCl, 1 mM DTT, heparin 80 ng/uL, ~10 nM RNA, plus RNAP storage buffer; 30 min at 37 C; native 7.5% PAGE (10% for Fig 12). To be noted: protein: native; chain copies: 2;1;1;1; label: 5'-32P.

Changes are numbered by the printed parent chain. In names and notes the source's numbering stands.

T2 sequence (P20429 whole entry, chain 1 of 4): as the sequence (P20429 whole entry, chain 1 of 4) above
T2 sequence (P37870 whole entry, chain 2 of 4): as the sequence (P37870 whole entry, chain 2 of 4) above
T2 sequence (P37871 whole entry, chain 3 of 4): as the sequence (P37871 whole entry, chain 3 of 4) above
T2 sequence (P06224 whole entry, chain 4 of 4): as the sequence (P06224 whole entry, chain 4 of 4) above

B1: wt 6S-1 RNA (190 nt) (structured_RNA)
RNA: AGUCCUGAUGUGUUAGUUGUACACCUAGUUUUGACCGAACAUUUUUUUGAUUUGGGAGCCCGCAUUUUUAAAUGGCGUACAUGCCUCUUUUCAUUCGGUAAAGAGGACUUACAAGAUUUAAAAGAGGGCACCCACCUGCUGAGAGCGGGUUCAAAACAAAGGAAAGCUGCAACGGCACUAUUGGGACUUU
In the case of B1, the “apparent K (half saturation)” value in data set [1] (rod-shaped, central bubble flanked by two helical arms) is ~100 nM.

B2: 6S-1 RNA C44/45 (structured_RNA)
RNA: B1 RNA with U44C, U45C
On to B2, for which the binding signal in data set [2] is ~2 fold lower affinity vs wt.

B3: 6S-1 RNA:pLNA 7-mer (mixed)
RNA: B1 RNA
DNA: GTTCGGT
modifications: strand 2 LNA, iso-sequential to pRNA (first 7 nt inferred)
As to B3, in data set [3], the binding result is listed as “no binding”.

B4: C44/45 6M 6S-1 RNA (structured_RNA)
RNA: B1 RNA with U30C, U31A, U32A, A34G, U44C, U45C, A154U, A155G
With B4, in data set [4], the binding signal was ~3 fold lower affinity vs wt 6M.

B5: 6S-1 RNA:pLNA 6-mer (mixed)
RNA: B1 RNA
DNA: GTTCGG
modifications: strand 2 LNA, iso-sequential to pRNA (first 6 nt inferred)
Take B5: in data set [3], the binding result was “no binding”.

B6: 6S-1 RNA:pRNA 14-mer (structured_RNA)
RNA 1: B1 RNA
RNA 2: GUUCGGUCAAAACU
Consider B6, for which the binding result in data set [5] is listed as “no binding”.

B7: 6S-1 RNA A50U (structured_RNA)
RNA: B1 RNA with A50U
Regarding B7, the binding signal in data set [6] is ~2 fold Kd increase vs wt.

B8: 6S-1 RNA:pLNA 8-mer (mixed)
RNA: B1 RNA
DNA: GTTCGGTC
modifications: strand 2 all-LNA
On to B8, for which, in data set [3], the binding result is reported as “no binding”.

B9: C44/45 8M 6S-1 RNA (structured_RNA)
RNA: B1 RNA with U30C, U31A, U32A, A34G, U44C, U45C, U151C, A153U, A154U, A155G
B9: the binding signal in data set [7] is ~1.5 fold lower affinity vs wt 8M.

B10: 6S82cp RNA (structured_RNA)
RNA: GGGCACCCACCUGCUGAGAGCGGGUUCAAAACAAAGGAAAGCCACCUAGUUUUGACCGAACAUUUUUUUGAUUUGGGAGCCC
With B10, in data set [1] (artificial loop capping P2), the “apparent K (half saturation)” value is ~1000 nM.

B11: 6S78 RNA (structured_RNA)
RNA: CCUAGUUUUGACCGAACAUUUUUUUGAUUUGGGAGCCCGCAGGGCACCCACCUGCUGAGAGCGGGUUCAAAACAAAGG
On to B11, for which, in data set [1], the “apparent K (half saturation)” value was ~1000 nM.

(Values after paper PMC8876501, “Structural and Functional Insight into the Mechanism of Bacillus subtilis 6S-1 RNA Release from RNA Polymerase”.)
